Assays:
[1] = target: CCR9 ΔCT (human) (UniProt P51686)
[2] = target: CCR9-RlucII (human) (UniProt P51686)
[3] = target: CCR9-RlucII (human) (UniProt P51686); remark: listed apart in the source
[4] = target: CCR9 C1 (CCR9-RlucII with S335A/T347A/S352A/S356A/S357A) (human) (UniProt P51686)
[5] = target: CCR9 C1 + C2 (CCR9-RlucII with all C-tail phosphorylation sites changed to alanine) (human) (UniProt P51686)

Gαq-Nluc, sequence (P50148 whole entry): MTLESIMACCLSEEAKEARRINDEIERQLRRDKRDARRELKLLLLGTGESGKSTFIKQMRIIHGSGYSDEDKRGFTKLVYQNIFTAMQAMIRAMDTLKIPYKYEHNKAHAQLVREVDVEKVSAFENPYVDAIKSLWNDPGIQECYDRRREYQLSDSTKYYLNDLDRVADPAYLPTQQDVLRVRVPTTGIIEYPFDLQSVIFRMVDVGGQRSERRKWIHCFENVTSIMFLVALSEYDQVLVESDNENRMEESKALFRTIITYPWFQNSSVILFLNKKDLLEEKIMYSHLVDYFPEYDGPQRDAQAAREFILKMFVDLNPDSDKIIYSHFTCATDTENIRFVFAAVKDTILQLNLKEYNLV
Gαi-Nluc, sequence (P63096 whole entry): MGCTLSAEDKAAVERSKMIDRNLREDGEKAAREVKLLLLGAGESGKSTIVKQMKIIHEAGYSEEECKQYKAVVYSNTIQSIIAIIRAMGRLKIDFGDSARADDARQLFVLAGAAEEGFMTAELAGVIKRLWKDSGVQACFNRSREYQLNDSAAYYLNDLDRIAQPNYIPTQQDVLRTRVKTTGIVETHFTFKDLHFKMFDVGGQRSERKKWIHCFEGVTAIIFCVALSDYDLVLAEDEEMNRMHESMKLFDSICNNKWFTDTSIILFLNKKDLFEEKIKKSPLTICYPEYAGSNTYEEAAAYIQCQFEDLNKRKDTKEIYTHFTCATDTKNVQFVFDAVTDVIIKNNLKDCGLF

Gαq-Nluc (from UniProt P50148 1-359) (natural protein)
area over the Gαq–Gβγ dissociation curve (AOC), against CCR9 WT [1]: 4 fold
maximal decrease in BRET between Gαq-Nluc and Gβγ-smV (G protein dissociation) in HEK293 cells, 100 nM CCL25 [1]: 5%
decrease in BRET between Gαq-Nluc and Gβγ-smV (G protein dissociation) in HEK293 cells with untagged CCR9, 100 nM CCL25 [2]: 0%

Gαi-Nluc (from UniProt P63096 1-354) (natural protein)
decrease in BRET between Gαi-Nluc and Gβγ-smV (G protein dissociation) in HEK293 cells with untagged CCR9, 100 nM CCL25; returns to basal levels within 10 min [3]: 2%
area over the Gαi–Gβγ dissociation curve (AOC), against CCR9 WT [1]: 6 fold
maximal decrease in BRET between Gαi-Nluc and Gβγ-smV (G protein dissociation) in HEK293 cells, 100 nM CCL25 [1]: 7%
Gαi-Nluc/Gβγ-smV dissociation BRET (AOC) in HEK293 cells with untagged CCR9 C1, 100 nM CCL25, against CCR9 WT [4]: 2 fold
Gαi-Nluc/Gβγ-smV dissociation BRET (AOC) in HEK293 cells with untagged CCR9 C1 + C2, 100 nM CCL25, against CCR9 WT [5]: 2 fold
